From publication PMC4468220, “Defective Proteasome Delivery of Polyubiquitinated Proteins by Ubiquilin-2 Proteins Containing ALS Mutations” (PLoS ONE, 2015)

Tests used:
Experiment in all cases: pull-down; 4 μg GST protein with 2 μg HIS-S5a in 800μL 2% Chaps buffer (20mM Tris pH 8.0, 150mM NaCl, 2mM MgCl2, 10% glycerol, 2.0% Chaps), glutathione agarose beads, 2 hrs at room temperature; washes with PBS, 2% Tween-20, 200 mM KCl; blot for S5a
Conditions in all cases: both partners purified
[1] = target: T1, GST-ubiquilin-2 wild type (human, UniProt Q9UHD9 1-624)
T1 construct: ubiquilin-2, human, full-length cDNA, 624 aa; cloned downstream of GST in the pGST/His T1 vector; also called GST-fusion protein encoding WT ubiquilin-2; source: E. coli BL21(DE3), purified (glutathione-agarose); not shown: GST, N-terminal, kept
T1 sequence (Q9UHD9 whole entry, the tested form may be a part): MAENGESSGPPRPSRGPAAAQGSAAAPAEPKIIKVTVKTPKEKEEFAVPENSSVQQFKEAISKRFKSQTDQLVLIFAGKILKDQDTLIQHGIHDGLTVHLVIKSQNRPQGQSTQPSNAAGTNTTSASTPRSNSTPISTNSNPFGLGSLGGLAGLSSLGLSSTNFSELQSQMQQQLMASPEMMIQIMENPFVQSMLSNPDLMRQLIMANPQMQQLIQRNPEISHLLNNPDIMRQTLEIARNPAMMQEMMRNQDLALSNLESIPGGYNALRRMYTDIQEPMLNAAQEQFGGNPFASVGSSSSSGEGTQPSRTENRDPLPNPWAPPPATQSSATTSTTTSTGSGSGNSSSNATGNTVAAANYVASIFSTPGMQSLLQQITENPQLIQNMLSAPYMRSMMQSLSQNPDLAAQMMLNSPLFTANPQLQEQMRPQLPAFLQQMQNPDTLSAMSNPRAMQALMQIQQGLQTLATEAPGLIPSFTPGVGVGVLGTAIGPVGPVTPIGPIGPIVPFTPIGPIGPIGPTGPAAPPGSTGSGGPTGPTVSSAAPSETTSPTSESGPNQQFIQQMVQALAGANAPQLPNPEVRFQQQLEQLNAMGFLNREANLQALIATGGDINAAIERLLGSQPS

[2] = target: T2, GST-ubiquilin-2 P506T (human, UniProt Q9UHD9 1-624, P506T)
T2 construct: ubiquilin-2, human, full-length cDNA, 624 aa, ALS-linked mutation P506T; pGST/His T1 vector; also called P506T mutation; source: E. coli BL21(DE3), purified (glutathione-agarose); not shown: GST, N-terminal, kept
T2 sequence (Q9UHD9 whole entry P506T): as the sequence (Q9UHD9 whole entry, the tested form may be a part) above, with P506T counted along it

[3] = target: T3, GST-ubiquilin-2 P497H (human, UniProt Q9UHD9 1-624, P497H)
T3 construct: ubiquilin-2, human, full-length cDNA, 624 aa, ALS-linked mutation P497H; pGST/His T1 vector; also called P497H mutation; source: E. coli BL21(DE3), purified (glutathione-agarose); not shown: GST, N-terminal, kept
T3 sequence (Q9UHD9 whole entry P497H): as the sequence (Q9UHD9 whole entry, the tested form may be a part) above, with P497H counted along it

[4] = target: T4, GST-ubiquilin-2 P525S (human, UniProt Q9UHD9 1-624, P525S)
T4 construct: ubiquilin-2, human, full-length cDNA, 624 aa, ALS-linked mutation P525S; pGST/His T1 vector; also called P525S mutation; source: E. coli BL21(DE3), purified (glutathione-agarose); not shown: GST, N-terminal, kept
T4 sequence (Q9UHD9 whole entry P525S): as the sequence (Q9UHD9 whole entry, the tested form may be a part) above, with P525S counted along it

[5] = target: T5, GST-ubiquilin-2 P497S (human, UniProt Q9UHD9 1-624, P497S)
T5 construct: ubiquilin-2, human, full-length cDNA, 624 aa, ALS-linked mutation P497S; pGST/His T1 vector; also called P497S mutation; source: E. coli BL21(DE3), purified (glutathione-agarose); not shown: GST, N-terminal, kept
T5 sequence (Q9UHD9 whole entry P497S): as the sequence (Q9UHD9 whole entry, the tested form may be a part) above, with P497S counted along it

[6] = target: T6, GST-ubiquilin-2 P509S (human, UniProt Q9UHD9 1-624, P509S)
T6 construct: ubiquilin-2, human, full-length cDNA, 624 aa, ALS-linked mutation P509S; pGST/His T1 vector; also called P509S mutation; source: E. coli BL21(DE3), purified (glutathione-agarose); not shown: GST, N-terminal, kept
T6 sequence (Q9UHD9 whole entry P509S): as the sequence (Q9UHD9 whole entry, the tested form may be a part) above, with P509S counted along it

binding result [1]: binds | binding result [2]: binds | binding result [3]: binds | binding result [4]: binds | binding result [5]: binds | binding result [6]: binds
B1: HIS-tagged human S5a protein (natural protein, UniProt P55036 1-377, looked up)
chain: MVLESTMVCVDNSEYMRNGDFLPTRLQAQQDAVNIVCHSKTRSNPENNVGLITLANDCEVLTTLTPDTGRILSKLHTVQPKGKITFCTGIRVAHLALKHRQGKNHKMRIIAFVGSPVEDNEKDLVKLAKRLKKEKVNVDIINFGEEEVNTEKLTAFVNTLNGKDGTGSHLVTVPPGPSLADALISSPILAGEGGAMLGLGASDFEFGVDPSADPELALALRVSMEEQRQRQEEEARRAAAASAAEAGIATTGTEDSDDALLKMTISQQEFGRTGLPDLSSMTEEEQIAYAMQMSLQGAEFGQAESADIDASSAMDTSEPAKEEDDYDVMQDPEFLQSVLENLPGVDPNNEAIRNAMGSLASQATKDGKKDKKEEDKK
notes: S5a subunit of the 19S cap of the proteasome, human, entire open reading frame (377 aa); cloned in pET-21a; also called His-S5a; HIS-S5a; source: E. coli BL21(DE3), purified (Ni-NTA agarose)
